Measured values from patent publication US20260001928A1 (CORTERIA PHARMACEUTICALS, priority 2022, published 2026).
*1 amine or outer side, *2 acyl side, *3 side chain or, on linkers, in order; H or OH if unused. Where no end group is shown, it is not given here. Side-chain parts run from the residue outwards. [ ]: non-standard residue; d: D form. The star is where a group is joined. C18 diacid = O=C(O)CCCCCCCCCCCCCCCCC(=O)*; C16 diacid = O=C(O)CCCCCCCCCCCCCCC(=O)*; γGlu = O=C(O)[C@H](CCC(=O)[*:2])N[*:1]; NMeI = CC[C@H](C)[C@H](NC)C(=O)O; Pentanoyl = CCCCC(=O)*; AEEA = NCCOCCOCC(=O)O; Aib = CC(C)(N)C(=O)O; Propionyl = CCC(=O)*

Key:
CRF1R receptor = biological target: T1, CRF1R receptor (UniProt P34998 24-415, limits assumed); test: cell-based or functional assay
T1 sequence (looked up): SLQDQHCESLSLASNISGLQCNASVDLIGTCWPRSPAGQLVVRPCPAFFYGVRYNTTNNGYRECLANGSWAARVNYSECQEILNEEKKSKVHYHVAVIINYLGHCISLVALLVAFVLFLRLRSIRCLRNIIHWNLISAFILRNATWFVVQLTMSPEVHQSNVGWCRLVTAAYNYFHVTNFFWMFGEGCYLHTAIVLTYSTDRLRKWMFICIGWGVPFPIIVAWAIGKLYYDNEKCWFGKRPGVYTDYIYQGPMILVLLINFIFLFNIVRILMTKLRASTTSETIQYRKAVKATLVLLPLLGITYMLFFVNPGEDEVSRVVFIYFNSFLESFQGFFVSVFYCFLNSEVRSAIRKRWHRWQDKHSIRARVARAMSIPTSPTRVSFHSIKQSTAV

[1] = biological target: human corticotropin-releasing factor 2a (CRF2a receptor) (human), Q13324; test: cell-based or functional assay
Sequence of human corticotropin-releasing factor 2a (CRF2a receptor) (human), Q13324 (Q13324 20-411): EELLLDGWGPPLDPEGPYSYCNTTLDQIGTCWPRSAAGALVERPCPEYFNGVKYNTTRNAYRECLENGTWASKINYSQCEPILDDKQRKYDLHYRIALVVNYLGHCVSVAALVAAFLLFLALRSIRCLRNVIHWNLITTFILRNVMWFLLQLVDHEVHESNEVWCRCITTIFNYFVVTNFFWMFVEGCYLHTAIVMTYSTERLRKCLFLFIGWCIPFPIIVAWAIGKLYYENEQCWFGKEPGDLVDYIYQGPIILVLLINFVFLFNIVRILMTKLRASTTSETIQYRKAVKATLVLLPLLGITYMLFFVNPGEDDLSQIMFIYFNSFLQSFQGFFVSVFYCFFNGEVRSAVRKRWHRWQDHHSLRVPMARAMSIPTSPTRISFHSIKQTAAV

B1: SEQ ID NO 22 (peptide)
peptide: Pentanoyl-VLSLD[dV]PIKLK([γGlu-C16 diacid])Q[Aib]LLKQERQKKQREQAEKNVQILEQV-NH2
SMILES: CCCCC(=O)N[C@H](C(=O)N[C@@H](CC(C)C)C(=O)N[C@@H](CO)C(=O)N[C@@H](CC(C)C)C(=O)N[C@@H](CC(=O)O)C(=O)N[C@@H](C(=O)N1CCC[C@H]1C(=O)N[C@H](C(=O)N[C@@H](CCCCN)C(=O)N[C@@H](CC(C)C)C(=O)N[C@@H](CCCCNC(=O)CC[C@H](NC(=O)CCCCCCCCCCCCCCC(=O)O)C(=O)O)C(=O)N[C@@H](CCC(N)=O)C(=O)NC(C)(C)C(=O)N[C@@H](CC(C)C)C(=O)N[C@@H](CC(C)C)C(=O)N[C@@H](CCCCN)C(=O)N[C@@H](CCC(N)=O)C(=O)N[C@@H](CCC(=O)O)C(=O)N[C@@H](CCCNC(=N)N)C(=O)N[C@@H](CCC(N)=O)C(=O)N[C@@H](CCCCN)C(=O)N[C@@H](CCCCN)C(=O)N[C@@H](CCC(N)=O)C(=O)N[C@@H](CCCNC(=N)N)C(=O)N[C@@H](CCC(=O)O)C(=O)N[C@@H](CCC(N)=O)C(=O)N[C@@H](C)C(=O)N[C@@H](CCC(=O)O)C(=O)N[C@@H](CCCCN)C(=O)N[C@@H](CC(N)=O)C(=O)N[C@H](C(=O)N[C@@H](CCC(N)=O)C(=O)N[C@H](C(=O)N[C@@H](CC(C)C)C(=O)N[C@@H](CCC(=O)O)C(=O)N[C@@H](CCC(N)=O)C(=O)N[C@H](C(N)=O)C(C)C)[C@@H](C)CC)C(C)C)[C@@H](C)CC)C(C)C)C(C)C
- Emax (% I) (CRF1R receptor): 3%
- EC50 [nM] (cAMP) [1]: 4.44 nM

B2: SEQ ID NO 121 (peptide)
peptide: Pentanoyl-VLSLD[dV]PIKLK([AEEA-AEEA-γGlu-C18 diacid])KILLEQEKQKKQREQAETNVQILAQV-NH2
SMILES: CCCCC(=O)N[C@H](C(=O)N[C@@H](CC(C)C)C(=O)N[C@@H](CO)C(=O)N[C@@H](CC(C)C)C(=O)N[C@@H](CC(=O)O)C(=O)N[C@@H](C(=O)N1CCC[C@H]1C(=O)N[C@H](C(=O)N[C@@H](CCCCN)C(=O)N[C@@H](CC(C)C)C(=O)N[C@@H](CCCCNC(=O)COCCOCCNC(=O)COCCOCCNC(=O)CC[C@H](NC(=O)CCCCCCCCCCCCCCCCC(=O)O)C(=O)O)C(=O)N[C@@H](CCCCN)C(=O)N[C@H](C(=O)N[C@@H](CC(C)C)C(=O)N[C@@H](CC(C)C)C(=O)N[C@@H](CCC(=O)O)C(=O)N[C@@H](CCC(N)=O)C(=O)N[C@@H](CCC(=O)O)C(=O)N[C@@H](CCCCN)C(=O)N[C@@H](CCC(N)=O)C(=O)N[C@@H](CCCCN)C(=O)N[C@@H](CCCCN)C(=O)N[C@@H](CCC(N)=O)C(=O)N[C@@H](CCCNC(=N)N)C(=O)N[C@@H](CCC(=O)O)C(=O)N[C@@H](CCC(N)=O)C(=O)N[C@@H](C)C(=O)N[C@@H](CCC(=O)O)C(=O)N[C@H](C(=O)N[C@@H](CC(N)=O)C(=O)N[C@H](C(=O)N[C@@H](CCC(N)=O)C(=O)N[C@H](C(=O)N[C@@H](CC(C)C)C(=O)N[C@@H](C)C(=O)N[C@@H](CCC(N)=O)C(=O)N[C@H](C(N)=O)C(C)C)[C@@H](C)CC)C(C)C)[C@@H](C)O)[C@@H](C)CC)[C@@H](C)CC)C(C)C)C(C)C
- Emax (% I) (CRF1R receptor): 6%
- EC50 [nM] (cAMP) [1]: 5.76 nM

B3: SEQ ID NO 81 (peptide)
peptide: Pentanoyl-VLSLD[dV]PIKLK([γGlu-C16 diacid])KILLEQEKQKKQREQAETNVQILAQV-NH2
SMILES: CCCCC(=O)N[C@H](C(=O)N[C@@H](CC(C)C)C(=O)N[C@@H](CO)C(=O)N[C@@H](CC(C)C)C(=O)N[C@@H](CC(=O)O)C(=O)N[C@@H](C(=O)N1CCC[C@H]1C(=O)N[C@H](C(=O)N[C@@H](CCCCN)C(=O)N[C@@H](CC(C)C)C(=O)N[C@@H](CCCCNC(=O)CC[C@H](NC(=O)CCCCCCCCCCCCCCC(=O)O)C(=O)O)C(=O)N[C@@H](CCCCN)C(=O)N[C@H](C(=O)N[C@@H](CC(C)C)C(=O)N[C@@H](CC(C)C)C(=O)N[C@@H](CCC(=O)O)C(=O)N[C@@H](CCC(N)=O)C(=O)N[C@@H](CCC(=O)O)C(=O)N[C@@H](CCCCN)C(=O)N[C@@H](CCC(N)=O)C(=O)N[C@@H](CCCCN)C(=O)N[C@@H](CCCCN)C(=O)N[C@@H](CCC(N)=O)C(=O)N[C@@H](CCCNC(=N)N)C(=O)N[C@@H](CCC(=O)O)C(=O)N[C@@H](CCC(N)=O)C(=O)N[C@@H](C)C(=O)N[C@@H](CCC(=O)O)C(=O)N[C@H](C(=O)N[C@@H](CC(N)=O)C(=O)N[C@H](C(=O)N[C@@H](CCC(N)=O)C(=O)N[C@H](C(=O)N[C@@H](CC(C)C)C(=O)N[C@@H](C)C(=O)N[C@@H](CCC(N)=O)C(=O)N[C@H](C(N)=O)C(C)C)[C@@H](C)CC)C(C)C)[C@@H](C)O)[C@@H](C)CC)[C@@H](C)CC)C(C)C)C(C)C
- Emax (% I) (CRF1R receptor): 6%
- EC50 [nM] (cAMP) [1]: 0.8 nM

B4: SEQ ID NO 66 (peptide)
peptide: [NMeI]VLSLD[dV]PIKLK([γGlu-C16 diacid])KILLEQEKQKKQREQAETNVQILAQV-NH2
modifications: N-terminus assumed
SMILES: CC[C@H](C)[C@H](NC)C(=O)N[C@H](C(=O)N[C@@H](CC(C)C)C(=O)N[C@@H](CO)C(=O)N[C@@H](CC(C)C)C(=O)N[C@@H](CC(=O)O)C(=O)N[C@@H](C(=O)N1CCC[C@H]1C(=O)N[C@H](C(=O)N[C@@H](CCCCN)C(=O)N[C@@H](CC(C)C)C(=O)N[C@@H](CCCCNC(=O)CC[C@H](NC(=O)CCCCCCCCCCCCCCC(=O)O)C(=O)O)C(=O)N[C@@H](CCCCN)C(=O)N[C@H](C(=O)N[C@@H](CC(C)C)C(=O)N[C@@H](CC(C)C)C(=O)N[C@@H](CCC(=O)O)C(=O)N[C@@H](CCC(N)=O)C(=O)N[C@@H](CCC(=O)O)C(=O)N[C@@H](CCCCN)C(=O)N[C@@H](CCC(N)=O)C(=O)N[C@@H](CCCCN)C(=O)N[C@@H](CCCCN)C(=O)N[C@@H](CCC(N)=O)C(=O)N[C@@H](CCCNC(=N)N)C(=O)N[C@@H](CCC(=O)O)C(=O)N[C@@H](CCC(N)=O)C(=O)N[C@@H](C)C(=O)N[C@@H](CCC(=O)O)C(=O)N[C@H](C(=O)N[C@@H](CC(N)=O)C(=O)N[C@H](C(=O)N[C@@H](CCC(N)=O)C(=O)N[C@H](C(=O)N[C@@H](CC(C)C)C(=O)N[C@@H](C)C(=O)N[C@@H](CCC(N)=O)C(=O)N[C@H](C(N)=O)C(C)C)[C@@H](C)CC)C(C)C)[C@@H](C)O)[C@@H](C)CC)[C@@H](C)CC)C(C)C)C(C)C
- Emax (% I) (CRF1R receptor): 4%
- EC50 [nM] (cAMP) [1]: 1.05 nM

B5: SEQ ID NO 35 (peptide)
peptide: Propionyl-VLSLD[dV]PIKLK([γGlu-C16 diacid])KILLEQEKQKKQREQAETNKQILAQV-NH2
SMILES: CCC(=O)N[C@H](C(=O)N[C@@H](CC(C)C)C(=O)N[C@@H](CO)C(=O)N[C@@H](CC(C)C)C(=O)N[C@@H](CC(=O)O)C(=O)N[C@@H](C(=O)N1CCC[C@H]1C(=O)N[C@H](C(=O)N[C@@H](CCCCN)C(=O)N[C@@H](CC(C)C)C(=O)N[C@@H](CCCCNC(=O)CC[C@H](NC(=O)CCCCCCCCCCCCCCC(=O)O)C(=O)O)C(=O)N[C@@H](CCCCN)C(=O)N[C@H](C(=O)N[C@@H](CC(C)C)C(=O)N[C@@H](CC(C)C)C(=O)N[C@@H](CCC(=O)O)C(=O)N[C@@H](CCC(N)=O)C(=O)N[C@@H](CCC(=O)O)C(=O)N[C@@H](CCCCN)C(=O)N[C@@H](CCC(N)=O)C(=O)N[C@@H](CCCCN)C(=O)N[C@@H](CCCCN)C(=O)N[C@@H](CCC(N)=O)C(=O)N[C@@H](CCCNC(=N)N)C(=O)N[C@@H](CCC(=O)O)C(=O)N[C@@H](CCC(N)=O)C(=O)N[C@@H](C)C(=O)N[C@@H](CCC(=O)O)C(=O)N[C@H](C(=O)N[C@@H](CC(N)=O)C(=O)N[C@@H](CCCCN)C(=O)N[C@@H](CCC(N)=O)C(=O)N[C@H](C(=O)N[C@@H](CC(C)C)C(=O)N[C@@H](C)C(=O)N[C@@H](CCC(N)=O)C(=O)N[C@H](C(N)=O)C(C)C)[C@@H](C)CC)[C@@H](C)O)[C@@H](C)CC)[C@@H](C)CC)C(C)C)C(C)C
- Emax (% I) (CRF1R receptor): 13%
- EC50 [nM] (cAMP) [1]: 0.23 nM

B6: SEQ ID NO 18 (peptide)
peptide: Ac-IVLSLD[dV]PIKLK([γGlu-C16 diacid])Q[Aib]LLKQERQKKQREQAEKNVQILEQV-NH2
SMILES: CC[C@H](C)[C@H](NC(C)=O)C(=O)N[C@H](C(=O)N[C@@H](CC(C)C)C(=O)N[C@@H](CO)C(=O)N[C@@H](CC(C)C)C(=O)N[C@@H](CC(=O)O)C(=O)N[C@@H](C(=O)N1CCC[C@H]1C(=O)N[C@H](C(=O)N[C@@H](CCCCN)C(=O)N[C@@H](CC(C)C)C(=O)N[C@@H](CCCCNC(=O)CC[C@H](NC(=O)CCCCCCCCCCCCCCC(=O)O)C(=O)O)C(=O)N[C@@H](CCC(N)=O)C(=O)NC(C)(C)C(=O)N[C@@H](CC(C)C)C(=O)N[C@@H](CC(C)C)C(=O)N[C@@H](CCCCN)C(=O)N[C@@H](CCC(N)=O)C(=O)N[C@@H](CCC(=O)O)C(=O)N[C@@H](CCCNC(=N)N)C(=O)N[C@@H](CCC(N)=O)C(=O)N[C@@H](CCCCN)C(=O)N[C@@H](CCCCN)C(=O)N[C@@H](CCC(N)=O)C(=O)N[C@@H](CCCNC(=N)N)C(=O)N[C@@H](CCC(=O)O)C(=O)N[C@@H](CCC(N)=O)C(=O)N[C@@H](C)C(=O)N[C@@H](CCC(=O)O)C(=O)N[C@@H](CCCCN)C(=O)N[C@@H](CC(N)=O)C(=O)N[C@H](C(=O)N[C@@H](CCC(N)=O)C(=O)N[C@H](C(=O)N[C@@H](CC(C)C)C(=O)N[C@@H](CCC(=O)O)C(=O)N[C@@H](CCC(N)=O)C(=O)N[C@H](C(N)=O)C(C)C)[C@@H](C)CC)C(C)C)[C@@H](C)CC)C(C)C)C(C)C
- Emax (% I) (CRF1R receptor): 10%
- EC50 [nM] (cAMP) [1]: 3.55 nM
